The nature of this series: Viscosity measurement and state of medium composition. It counts as physicochemical. The note with it: for viscosity: 37° C., 100 rpm. How it is done:
Deacylated gellan gum (KELCOGEL CG-LA, manufactured by SANSHO Co., Ltd.) was suspended in pure water to 0.4% (w/v), and dissolved by stirring with heating at 90° C. This aqueous solution was allowed to cool to room temperature with stirring, and sterilized at 121° C. for 20 min in an autoclave. A 2-fold concentration of DMEM/F-12 medium (manufactured by Aldrich, 50 mL) and sterilization water (47.5 mL) were placed in a 300 mL tall beaker with stirring by a homomixer (3000 rpm) at room temperature, aqueous deacylated gellan gum solution (2.5 mL) was added, and the mixture was continuously stirred for 1 min to prepare a deacylated gellan gum medium composition with a final concentration of 0.01%. Medium compositions added with aqueous deacylated gellan gum solution with final concentrations of 0.02, 0.03 and 0.05% (w/v) were similarly prepared. The viscosity of the medium compositions was measured using an E type viscometer (manufactured by Toki Sangyo Co., Ltd., Viscometer TVE-22 L, standard roter 1° 34′×R24) under 37° C. condition at 100 rpm for 5 min.
The medium compositions prepared above were subjected to a suspension test of HeLa cell spheres and a viscosity measurement, in the same manner as with the deacylated gellan gum-containing medium. The viscosity of 1.0% (w/v) methylcellulose was measured at 50 rpm due to the measurement range of the apparatus.
In the same manner as in Reference Experimental Example 2, spheres of HeLa cells were formed, and several tens of the spheres were added to each medium (1 mL) prepared above, the mixture was stood still at 37° C. for 1 hr, and the suspended state of the sphere cells was visually observed. […] Furthermore, it was confirmed that addition of an equal amount of the medium to the cell suspension and centrifugation (300 to 400G, for 5 min) thereof result in sedimentation and recovery of the spheres of HeLa cells.
By a method similar to that for the polysaccharide mixture of Reference Experimental Example 9, DMEM/F-12 media containing deacylated gellan gum at a final concentration of 0.005, 0.01% (w/v) and other polysaccharide were prepared. The final concentration of polysaccharide was set to 0.1% (w/v) for xanthan gum, sodium alginate, locust bean gum, 0.2% (w/v) for methylcellulose, and 0.05% (w/v) for K-carageenan and diutan gum. The state of each medium composition and the viscosity measured by a method similar to that in Analysis Example 1 are shown in Tables 11-16.

Consider one substance from patent publication US10487308B2, “Culture medium composition” (NISSAN CHEMICAL CORPORATION, priority 2014, dated 2019).

With collagen, the state result (0.01% (w/v) in DMEM/F-12) was “liquid”, the state entry (0.05% (w/v) in DMEM/F-12) is listed as “liquid/solid”, the state result (0.1% (w/v) in DMEM/F-12) is listed as “solid (gel)” and the state entry (0.2% (w/v) in DMEM/F-12) is “solid (gel)”. For the same substance, the viscosity result reads like this: (0.05% (w/v) in DMEM/F-12) “unmeasurable”; (0.1% (w/v) in DMEM/F-12) “unmeasurable”; (0.2% (w/v) in DMEM/F-12) “unmeasurable”.
